From patent US20030170653A1, “Biological method for the production of tuliposide A and its intermediates” (priority 2001, published 2003)

Legend:
[1] = Decarboxylase enzyme activity of E. coli extracts, substrate L-glutamate (HPLC of FMOC derivatives); type: biochemical; conditions: for Rate for each substrate: Glutamate (1): crude protein, 20 mM L-glutamate, pH 5.8, room temperature; for Ratio (½): rate with glutamate (1) over rate with γ-methyleneglutamate (2)
Protocol: (§1) Chemically competent BL21 (DE3) cells (Novagen) were transformed with pNW2, pNW12 and pNW9, as well as with plasmids pET28a and pET29a. An isolated colony of freshly transformed cells was inoculated into 2 mL of LB containing kanamycin (50 μg/mL) and the culture grown overnight at 37° C. Cultures were transferred to 250 mL of LB containing kanamycin (50 μg/mL) and grown at 22° C. to OD 0.6-1.0, at which point they were induced with IPTG (0.1 mM). Induced cells were grown for an additional 14 h and harvested by centrifugation at 10,000× g.
(§2) Cells were resuspended in 5 mL of extraction buffer (50 mM Tris-HCl, pH 7.5, 0.2 mM EDTA, 10% glycerol, 1 mM DTT and 1 mM fresh AEBSF) and disrupted by two passes through a French press cell (12,000 psi). Soluble protein extracts were obtained from the supernatant fraction after centrifugation at 10,000× g for 10 min. Protein concentrations were determined using a Bradford reagent (Bio-Rad) (Bradford, Anal. Biochem. 72:248-254 (1976)).
(§3) Enzyme activity was determined using a method similar to that of Snedden et al. (J. Biol. Chem. 271:4148-4153 (1996)) and Turano et al. (Plant Physiol. 117:1141-1421 (1998)). Assays were carried out in a volume of 200 μL with 200 mM pyridine-HCl, pH 5.8, 10 mM NaCl, 0.1 mM PLP, 20 mM L-glutamate or D,L-γ-methyleneglutamate, and 20 to 50 uL of enzyme extract. The reactions were incubated at room temperature and 50 μL aliquots were removed at various times. Ethanol (100 μL) was added to terminate the reaction and precipitate the proteins. Samples were centrifuged at 10,000× g for 10 min. The supernatants were transferred to a fresh tube and dried under vacuum after which they were dissolved in 500 μL of borate buffer (400 mM, pH 10). For HPLC analysis, 20 μL of the sample was derivatized by mixing with 20 μL of FMOC ((9-fluorenylmethoxycarbonyl)). FMOC-derivatized samples were separated on a Novapak C18 column (3.9×150 mm, Waters) using an Alliance 2690 HPLC with a 9600 PDA detector (Waters). Samples were injected (16 μL) and separated with a gradient of Buffer A (40 mM NaPO4, pH 7.8) to Buffer B (methanol:acetonitrile:water/45:45:10). Assay products were FMOC-derivatized and quantified by comparison with standards. In each experiment, enzyme activity determinations were performed in triplicate. Proteins from Escherichia coli expressing empty vectors pET28a and pET29a were used as controls.

[2] = Decarboxylase enzyme activity of E. coli extracts, substrate D,L-γ-methyleneglutamate (HPLC of FMOC derivatives); type: biochemical; conditions: for Rate for each substrate: γ-methyleneglutamate (2): crude protein, 20 mM D,L-γ-methyleneglutamate, pH 5.8, room temperature; for enzyme activity against D,L-γ-methyleneglutamate compared with L-glutamate: proteins from expressing cells
Protocol: as §1, §2, §3

B1: Gad3del/pNW12: glutamate decarboxylase homolog from Alstroemeria with in-frame deletion (SEQ ID NO: 4), N-terminal His-tag fusion from vector pNW12 (protein)
chain: MALSSVVSDSNNQVQCTYASRYVRDEAPGFRMPEKSIPKEAAFTMINDELMLDGNPRLNLASFVTTWMEPECDRLMMSTINKNYALMDDYPVTIDIQNRCVNMIANLFNAPIGEGETTVGCATVGSSEAMMLAGLAFKRNWQNKRKAEGKPYDKPNMVTGSNVQVCWVKFAKYFEVEMKKVNLREGYYVMDPEKAVEMVDENTICVAAILGSTLTGEFEDVKLLNDLLVEKNKKTGWDTPIHVDAAIGGFIAPFIYPELEWDFRLPLVKSINVSGHKYGLVYPGVGWVVWRNKNDLPEELIFHINYLGIDQPTFTLNFSKGSNQIIGQYYQLIRLGFEGYKNIMENCTENARILREHLEEMGVFEIISKDIGAPLVTIALKDSSKHSVFKIADTIRRFGWTIPAYTMPKDVEHIAVLRVVIREDFSRSLAERLANDMKKVLVELDIHPSRTTTIAHVKAVENGNGNYVIKKSIVENGNGEHVIKKSIGENGNGKHAIKNCRDAVIANAA
modifications: N-terminal His-tag; Alstroemeria
In the case of B1, the “Rate for each substrate: Glutamate (1)” value [1] is reported as 7.0 μmol/min^−1/mg^−1, the “Ratio (½)” value [1] is reported as 0.56 and the “Rate for each substrate: γ-methyleneglutamate (2)” value [2] is reported as 12.4 μmol/min^−1/mg^−1. The “enzyme activity against D,L-γ-methyleneglutamate compared with L-glutamate” value [2] was “much higher”.

B2: gad3chim: chimeric glutamate decarboxylase homolog from Alstroemeria (SEQ ID NO: 6), N-terminal His-tag fusion from vector pNW9 (protein)
chain: MALSSVVSDSNNQVQCTYASRYVRDEAPGFRMPEKSIPKEAAFTMINDELMLDGNPRLNLASFVTTWMEPECDRLMMSTINKNYALMDDYPVTIDIQNRCVNMIANLFNAPIGEGETTVGCATVGSSEAMMLAGLAFKRNWQNKRKAEGKPYDKPNMVTGSNVQVCWVKFAKYFEVEMKKVNLREGYYVMDPEKAVEMVDENTICVAAILGSTLTGEFEDVKLLNDLLVEKNKKTGWDTPIHVDAAIGGFIAPFIYPELEWDFRLPLVKSINVSGHKYGLVYPGVGWVVWRNKNDLPEELIFHINYLGIDQPTFTLNFSKGSNQIIGQYYQLIRLGFEGYKNIMENCTENARILREHLEEMGVFEIISKDIGAPLVTIALKDSSKHSVFKIADTIRRFGWTIPAYTMPKDVEHIAVLRVVIREDFSRSLAERLANDMKKVLVELDIHPSRTTTIAHVKAVENGNGNYVIKKSIVENGNGEHVIKKSIGENGNGKHAIKNEHVIKKSIGENFNGKHAIKNCRDAVIANAA
modifications: N-terminal His-tag; Alstroemeria
For B2, the “enzyme activity against D,L-γ-methyleneglutamate compared with L-glutamate” value [2] was “much higher”.

B3: Gad2/pNW2: glutamate decarboxylase homolog from Alstroemeria (SEQ ID NO: 2), expressed in E. coli from vector pNW2, crude protein (protein)
chain: MVLSSAVSDNTGPVHCTFASRYVRDAPARFRMPENSIPKDTAYQIVNDELMLDGNPRLNLASFVTTWMEPECDRLMIAAANKNYVDMDEYPVTTELQNRCVNIIAHLFNAPIGDEETAVGVGTVGSSEAIMLAGLAFKRKWQNKKKAEGKPYDKPNIVTGANVQVCWEKFARYFEVELKEVKLREGYYIMDPEKAVEMVDENTICVAAILGSTLTGEFEDVKLLNKLLEEKNKETGWDTPIHVDAASGGFIAPFLYPELEWDFRLPLVKSINVSGHKYGLVYAGVGWVVWRNKEDLPEELIFHINYLGADQPTFTLNFSKGSSQIIAQYYQFIRLGFQGYKNIMENCMENTRILREGLQETGRFEIVSKDIGVPLVAFALKDSSQYTVFEIADAMRRFGWIIPAYTMPKDAEHIAVLRVVIREDFSRSLAERLVNDMKKVLAELDVLPSRITTIAHVTAVENDNGEAVIKKSFLEIEKKVITHWKDVVMNGKKTNKVC
modifications: Alstroemeria
For B3, the “Rate for each substrate: Glutamate (1)” value [1] was 12.0 μmol/min^−1/mg^−1, the “enzyme activity with L-glutamate compared with D,L-γ-methyleneglutamate as substrate” value ([1]; proteins from expressing cells) was “sixteen times higher” and the “Ratio (½)” value [1] was 16. For the same molecule, the “Rate for each substrate: γ-methyleneglutamate (2)” value [2] was 0.8 μmol/min^−1/mg^−1.
